# B1: Prickle-like protein 1 (Mus musculus), Q3U5C7 (parent)
# chain: MPLEMEPKMSKLVFGCQRSSTSDDDSGCALEEYAWVPPGLRPEQIQLYFACLPEEKVPYVNSPGEKHRIKQLLYQLPPHDNEVRYCQSLSEEEKKELQVFSAQRKKEALGRGTIKLLSRAVMHAVCEQCGLQMNGGEVAVFASRAGPGVCWHPSCFVCFTCNELLVDLIYFYQDGKIHCGRHHAELLKPRCSACDEIIFADECTEAEGRHWHMKHFCCLECETVLGGQRYIMKDGRPFCCGCFESLYAEYCETCGEHIGVDHAQMTYDGQHWHATEACFSCAQCKASLLGCPFLPKQGQIYCSKTCSLGEDIHASDSSDSAFQSARSRDSRRSVRMGRSSRSADQCRQSLLLSPALNYKFPGLSGNADDTLSRKLDDVSLASRQGAGFANEEFWKARVEQEASEDPEEWAEHEDYMTQLLLKFGDKNLFQQQSSEVDPRASEHWIPDNMVTNKPEVKPNHQGLASKKYQSDMYWAQSQDGLGDSAYGSHPGPASSRRLQELDLDHGAAGYTHDQSQWYEDSLECLSDLKPEQSIRDSMDSLALSNITGASVDGESKPRPSLYSLQNFEEIEAEDCEKMSNMGTLNSSMLHRSAESLQSLNSGLCPEKILPEEKPAHLPVLRRSKSQSRPQQVKFSDDVIDNGSYDIEIRQPPMSERTRRRAYHFEERGSRPHHHRHRRSRKSRSDNALNLVTERKYSAKDRLRLYTPDNYEKFIQNKSARELQAYMQNANLYSQYAHATSDYALQNPGMNRFLGLCGEDDDSWCSSSTSSSDSEEEGYFLGQPIPQPRPQRFTYYTDDLSSPASALPTPQFTQRTTKSKKKKGHKGKNCIIS
# partner: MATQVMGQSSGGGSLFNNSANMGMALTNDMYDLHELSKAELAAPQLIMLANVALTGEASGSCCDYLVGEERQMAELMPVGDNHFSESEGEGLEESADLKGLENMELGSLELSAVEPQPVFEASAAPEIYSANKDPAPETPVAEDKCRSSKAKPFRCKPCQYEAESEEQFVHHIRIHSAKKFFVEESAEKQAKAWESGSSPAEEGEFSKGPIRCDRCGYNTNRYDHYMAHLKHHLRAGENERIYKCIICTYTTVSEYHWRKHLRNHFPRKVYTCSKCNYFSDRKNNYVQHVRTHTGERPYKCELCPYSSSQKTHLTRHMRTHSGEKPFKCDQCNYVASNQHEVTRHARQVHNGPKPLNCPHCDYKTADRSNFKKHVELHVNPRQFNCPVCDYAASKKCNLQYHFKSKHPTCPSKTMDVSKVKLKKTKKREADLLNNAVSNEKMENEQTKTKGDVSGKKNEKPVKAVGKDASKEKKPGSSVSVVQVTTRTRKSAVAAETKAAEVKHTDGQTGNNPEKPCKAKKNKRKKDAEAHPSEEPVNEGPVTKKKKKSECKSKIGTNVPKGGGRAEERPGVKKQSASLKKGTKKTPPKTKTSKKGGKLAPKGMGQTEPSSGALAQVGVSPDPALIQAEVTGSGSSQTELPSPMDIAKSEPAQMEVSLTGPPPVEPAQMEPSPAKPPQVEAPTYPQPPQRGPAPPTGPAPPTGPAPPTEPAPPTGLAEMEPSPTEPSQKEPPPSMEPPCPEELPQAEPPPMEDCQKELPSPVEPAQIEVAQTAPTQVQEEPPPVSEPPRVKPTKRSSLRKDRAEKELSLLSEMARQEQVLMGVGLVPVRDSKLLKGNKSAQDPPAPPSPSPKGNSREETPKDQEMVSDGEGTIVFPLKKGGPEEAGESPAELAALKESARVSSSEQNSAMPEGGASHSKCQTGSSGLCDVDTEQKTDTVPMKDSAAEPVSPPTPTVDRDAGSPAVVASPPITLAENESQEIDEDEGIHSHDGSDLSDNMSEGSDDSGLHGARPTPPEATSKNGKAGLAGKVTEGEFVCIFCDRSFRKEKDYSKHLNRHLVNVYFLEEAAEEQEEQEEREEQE
# Variants of: B1
# Conditions: with rest_mouse Rest
row,Variant,effect of a mutation on the interaction
1,R104Q,decreasing interaction

# From IntAct's records for PubMed 34597683
